Experimental data reported in publication PMC4337726, “A molecular basis for the differential roles of Bub1 and BubR1 in the spindle assembly checkpoint” (eLife, 2015).

B1: H6-TRX-BubR1^362–571 (domain or fragment, human, UniProt O60566 362-571, looked up)
chain: INHILSTRKPGKEEGDPLQRVQSHQQASEEKKEKMMYCKEKIYAGVGEFSFEEIRAEVFRKKLKEQREAELLTSAEKRAEMQKQIEEMEKKLKEIQTTQQERTGDQQEETMPTKETTKLQIASESQKIPGMTLSSSVCQVNCCARETSLAENIWQEQPHSKGPSVPFSIFDEFLLSEKKNKSPPADPPRVLAQRRPLAVLKTSESITSNE
notes: source: insect cells, baculovirus, purified (TALON, SEC)

Experiments:
Bub3 = Bub3 (UniProt O43684); test: co-immunoprecipitation (anti-GFP IP), quantified Western blot; conditions: mitotic Flp-In T-REx cell lines; mean of two independent experiments; parent: 1.0; read off a plot
Chain of Bub3 (O43684 whole entry): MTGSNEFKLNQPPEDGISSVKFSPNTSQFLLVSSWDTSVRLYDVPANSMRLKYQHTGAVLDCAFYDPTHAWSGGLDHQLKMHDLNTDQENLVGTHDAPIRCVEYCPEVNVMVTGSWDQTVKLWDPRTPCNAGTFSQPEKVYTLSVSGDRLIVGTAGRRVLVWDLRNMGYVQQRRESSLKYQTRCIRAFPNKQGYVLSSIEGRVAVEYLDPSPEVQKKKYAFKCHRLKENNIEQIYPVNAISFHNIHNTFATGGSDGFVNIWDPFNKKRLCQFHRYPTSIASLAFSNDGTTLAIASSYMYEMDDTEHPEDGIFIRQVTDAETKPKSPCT

Cdc20 = Cdc20 (UniProt Q12834); test: as above; conditions: mitotic Flp-In T-REx cell lines; mean of two independent experiments; parent: 1.0; read off a plot
Chain of Cdc20 (Q12834 whole entry): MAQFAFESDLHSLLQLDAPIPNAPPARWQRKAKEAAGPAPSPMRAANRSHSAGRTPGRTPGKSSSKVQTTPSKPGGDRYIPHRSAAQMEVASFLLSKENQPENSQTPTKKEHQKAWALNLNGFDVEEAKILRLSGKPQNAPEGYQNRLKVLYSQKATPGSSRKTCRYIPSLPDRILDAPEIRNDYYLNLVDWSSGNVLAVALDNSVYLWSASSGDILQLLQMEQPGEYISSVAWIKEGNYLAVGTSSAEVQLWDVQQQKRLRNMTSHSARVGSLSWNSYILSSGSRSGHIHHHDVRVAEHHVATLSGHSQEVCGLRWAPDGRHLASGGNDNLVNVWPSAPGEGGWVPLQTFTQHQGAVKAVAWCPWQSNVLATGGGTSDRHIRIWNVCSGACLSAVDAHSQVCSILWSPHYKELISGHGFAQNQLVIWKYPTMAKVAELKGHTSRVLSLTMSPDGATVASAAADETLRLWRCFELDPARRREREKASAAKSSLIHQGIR

Mad2 = Mad2 (UniProt Q13257); test: as above; conditions: mitotic Flp-In T-REx cell lines; mean of two independent experiments; parent: 1.0; read off a plot
Chain of Mad2 (Q13257 whole entry): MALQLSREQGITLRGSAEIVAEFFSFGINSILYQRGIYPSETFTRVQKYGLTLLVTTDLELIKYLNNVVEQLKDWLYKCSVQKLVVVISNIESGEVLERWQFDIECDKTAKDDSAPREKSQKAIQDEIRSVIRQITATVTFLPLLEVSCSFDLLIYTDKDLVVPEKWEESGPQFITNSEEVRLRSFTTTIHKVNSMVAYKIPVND

Apc7 = test: as above; conditions: mitotic Flp-In T-REx cell lines; mean of two independent experiments; parent: 1.0; read off a plot
Cdc27 = test: as above; conditions: mitotic Flp-In T-REx cell lines; mean of two independent experiments; parent: 1.0; read off a plot
[1] = biological target: anaphase promoting complex/cyclosome, P30260;Q9UJX3; test: co-immunoprecipitation (anti-Cdc27 IP), quantified Western blot; conditions: mitotic Flp-In T-REx cell lines; mean of two independent experiments; parent: 1.0; read off a plot
H6-Bub1^209–409-MBP/Bub3 = biological target: T1, H6-Bub1^209–409-MBP/Bub3 (human | , UniProt O43683 209-409; O43684 1-328); test: SEC; mobility shift; proteins at 15 µM, 1 hr at 20–22°C in 50 mM Tris–HCl pH 8, 150 mM KCl, 1.5 mM TCEP, 0.05% Tween20; Superose6 10/300; SDS-PAGE of fractions; conditions: both partners purified
T1 construct: Bub3, untagged, co-expressed; source: insect cells, co-expressed, purified (TALON, SEC); not shown: H6, N-terminal, kept; MBP, C-terminal, kept
T1 sequence (O43683 209-409, chain 1 of 2): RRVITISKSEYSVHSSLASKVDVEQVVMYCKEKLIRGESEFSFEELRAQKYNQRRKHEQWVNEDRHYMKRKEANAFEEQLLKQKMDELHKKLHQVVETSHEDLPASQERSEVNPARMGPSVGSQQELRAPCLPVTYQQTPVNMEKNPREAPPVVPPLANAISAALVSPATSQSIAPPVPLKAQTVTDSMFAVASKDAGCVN
T1 sequence (O43684 whole entry, chain 2 of 2): as the sequence (O43684 whole entry) above

H6-Bub1^1–409/Bub3 = biological target: T2, H6-Bub1^1–409/Bub3 (human | , UniProt O43683 1-409; O43684 1-328); test: as above; conditions: both partners purified
T2 construct: Bub3, co-expressed, untagged or as Bub3-TRX; source: insect cells, co-infection and co-expression, purified (HisTrap, S200 SEC); not shown: H6, N-terminal, kept
T2 sequence (O43683 1-409, chain 1 of 2): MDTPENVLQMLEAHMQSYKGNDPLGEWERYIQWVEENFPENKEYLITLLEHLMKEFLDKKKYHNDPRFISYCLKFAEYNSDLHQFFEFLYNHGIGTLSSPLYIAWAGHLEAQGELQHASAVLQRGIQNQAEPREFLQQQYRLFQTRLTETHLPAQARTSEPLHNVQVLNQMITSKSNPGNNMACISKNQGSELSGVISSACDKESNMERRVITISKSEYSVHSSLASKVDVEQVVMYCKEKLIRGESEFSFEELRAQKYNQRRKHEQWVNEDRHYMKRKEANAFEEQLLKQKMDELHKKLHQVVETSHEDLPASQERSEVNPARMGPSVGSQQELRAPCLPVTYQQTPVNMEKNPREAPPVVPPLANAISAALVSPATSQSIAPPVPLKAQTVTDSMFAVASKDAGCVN
T2 sequence (O43684 whole entry, chain 2 of 2): as the sequence (O43684 whole entry) above

| Molecule | ratio to parent (Bub3) | ratio to parent (Cdc20) | ratio to parent (Mad2) | ratio to parent (Apc7) | ratio to parent (Cdc27) | ratio to parent [1] | binding result (H6-Bub1^209–409-MBP/Bub3) | binding result (H6-Bub1^1–409/Bub3) |
| --- | --- | --- | --- | --- | --- | --- | --- | --- |
| GFP-BubR1 wild type, full length (from UniProt O60566) B1-loop | 1.1 | 0.12 | 0.12 | 0.08 | 0.06 | 0.15 |  |  |
| B1 |  |  |  |  |  |  | binds | binds |
